Test system: MS2 coat protein
Test: apparent KD of MS2 coat protein; designed switch direction (-1 OFF switch, 1 ON switch): 1; higher = weaker reporter binding
In short: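 Each step of the titration lasted 0.8–1.5 h at the lowest concentration and 10–20 min at the highest. The protein, SNAP-549-labelled MS2 coat protein, went from 0.7 or 1.5 nM doubling to 3 µM over RNA switches transcribed on Illumina chips by stalled E. coli RNA polymerase. Normalised cluster fluorescence was curve-fitted, and the per-design median over clusters is given as apparent KD.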

[1] = input ligand: microRNA oligo, concentration not stated
[2] = Eterna round: R95, input ligand: FMN 200 uM
[3] = Eterna round: R95, input ligand: microRNA oligo, concentration not stated
[4] = Eterna round: R95, input ligand: none

| Sequence | apparent KD of MS2 coat protein (input ligand: FMN 200 uM) | apparent KD of MS2 coat protein [1] | apparent KD of MS2 coat protein (input ligand: none) | apparent KD of MS2 coat protein [2] | apparent KD of MS2 coat protein [3] | apparent KD of MS2 coat protein [4] |
| --- | --- | --- | --- | --- | --- | --- |
| UGGUACAUGGGAGGAUAUCAUGUAGAAACAUGAGGAUCACCCAUGUAGUUGGCAGCUUUGCUGAAUGAGAAGGCCCAUGUACCU [JL SSNG1 3.59] (Eterna round: R96, puzzle: Same State NG 2) | 20.6 nM | 19.5 nM | 26.7 nM | – | – | – |
| UUUAGAUCGCGAGGAUAUCGCGAGGAUCACCCGUGAGAAGGCGCAGAGCCGAGGAUCACCCGGCUGAUCCUGAGGAGGAGGUCU (Eterna round: R96, puzzle: Same State NG 1) | 106 nM | 184 nM | 269 nM | – | – | – |
| AUUUUUAAUGCAGGAUAUGAUUAACAUGAGGAUCACCCAUGUGGUGUUGUGAGUAAGGAGAGUGAUCAGAAGGGCAGUUUUUUU [JMF's solution 79] (Eterna round: R96, puzzle: Same State NG 2) | 543 nM | 315 nM | 499 nM | – | – | – |
| AGUGGUGGUGCAGGAUAUGCCUCAAAAGCAUGGGUAGAAGGGCAAUACAAAGAAACUCUGACAUGAGGAUCACCCAUGUAGCAA [Eternabot solution 43] (Eterna round: R96, puzzle: Same State NG 1) | 449 nM | 241 nM | 395 nM | – | – | – |
| AUUUAACAAGCUUUUUGCUCGUCUUAUAAACAUGAGGAUCACCCAUGUAAUAGCGUGAGAGUAAUUAUUUAAAUAAU [JMF 94] (puzzle: Sensor for hsa-mir-208a) | – | – | – | 16.1 nM | 37.5 nM | 14.7 nM |
| AGUCCAGCAAGAGCUGGACAAAAGCAUGUACAUGAGGAUCACCCAUGUCAUGUACAAGCUUUUUGCUCGUCUUAAAA [Mat - hsa-mir-208a - Mod of JL - D3] (puzzle: Sensor for hsa-mir-208a) | – | – | – | 456 nM | 16 nM | 729 nM |
| AUAAUACAUGAGGAUCACCCAUGUCAACAAAGUCGAGGAUAUGGGCAAAUAAAAUAAGAACCAGAAGGCGAAUAAU [salish99_ss1_r3_046] (puzzle: Same State 1) | – | – | – | 34.2 nM | 359 nM | 240 nM |
| ACAUGAGGAUCACCCAUGUAUAGAAUUGAAUGUUAAGAUACGUAGGAUAUCGAGUUUAGUAUGAUCGAGAAGGACGAUCUGAUA [JR_SSNG3_Sub065] (Eterna round: R96, puzzle: Same State NG 3) | – | 14.5 nM | – | – | – | – |
| UGGUACAUGGGAGGAUAUCAUGCAGACAUGAGGAUCACCCAUGUAGCCAUGGAGACAUGGGUAUAUGAGAAGGCCCAUGUACCU [JL SSNG1 3.53] (Eterna round: R96, puzzle: Same State NG 2) | 145 nM | 37.7 nM | 207 nM | – | – | – |
| AAGUAGCGAGAGCUACACAAAAAGUUUGUACAUGAGGAUCACCCAUGUUGUACAAGCUUUUUGCUCGUCUUAAAAAA [Mat - Sensor - JL mod - D14] (Eterna round: R96, puzzle: Sensor for hsa-mir-208a) | 77.4 nM | 11.6 nM | 84.1 nM | – | – | – |
| AUGAAGAAUUAAGGAUAUUGAUUACAUAUGUUUAACAUGAGGAUCACCCAUGUGGGUUGCGGUAUCGAGAAGGUAAAUUAAAAG [Mat - same State NG 2 - JL mod - D88] (Eterna round: R96, puzzle: Same State NG 2) | – | 156 nM | – | – | – | – |
| CCGCCGGGAACCCGGCGAAAACAUGAGGAUCACCCAUGUACACAGGAUAUCGUGACAUUAACAAACGAGAAGGGUGGCCGAGAC [Lelateen] (Eterna round: R96, puzzle: Same State NG 3) | 453 nM | 189 nM | 182 nM | – | – | – |
| UGUUGUUAAUUAGGAUAUGGUCACAUGAGGAUCACCCAUGUAAUGUCGAUGCUAUGUGGACACGAUCAGAAGGAAUGGCUAACA [SameState NG2 #93] (Eterna round: R96, puzzle: Same State NG 2) | 21.3 nM | 69.7 nM | 102 nM | – | – | – |
| AGUUGUGGGAAACUAUAGCAGACGCUCGUACAUGAGGAUCACCCAUGUCUUGUAGGAGCUGUUUGCUCGUUUUAUGG [ak 1 mod of one Eli's designs.] (puzzle: Sensor for hsa-mir-208a) | – | – | – | 62.8 nM | 50.1 nM | – |
| AUUAUUAAUGCAGGAUAUGAUUAACAUGAGGAUCACCCAUGUGGUGUUGUGAGUAAGGAGAGUGAUCAGAAGGGCAUUUUUUUC [JMF's solution 20] (Eterna round: R96, puzzle: Same State NG 2) | 672 nM | 369 nM | 399 nM | – | – | – |
| UAUCUCAUGUAAGGAUAUGCAGCCGUUUCGGCUGCAGAAGGUACUAUAAUACAUGAGGAUCACCCAUGUCUCUAUUAUUUAGUU [JL SSNG1 1.45] (Eterna round: R96, puzzle: Same State NG 1) | 57.6 nM | 45.7 nM | 63.8 nM | – | – | – |

| Sequence | apparent KD of MS2 coat protein (input ligand: FMN 200 uM) | apparent KD of MS2 coat protein [1] | apparent KD of MS2 coat protein (input ligand: none) | apparent KD of MS2 coat protein [2] | apparent KD of MS2 coat protein [3] | apparent KD of MS2 coat protein [4] |
| --- | --- | --- | --- | --- | --- | --- |
| GCUCGAUGAGCGGUUUACAUGAGGAUCACCCAUGUACAUGGGCAGGAUAUUUACGUGCUUUGUGUAGAGAAGGGCCCAUCGAGC [SameState NG3 #74] (Eterna round: R96, puzzle: Same State NG 3) | 92.4 nM | 280 nM | 244 nM | – | – | – |
| UGUUGUAUUACAGGAUAUCUAGUAUAUUUAUUUAGAGAAGGGUAUUCACAUGAGGAUCACCCAUGUAUAUACGAGGAAGUUGUG [JMF's solution 37] (Eterna round: R96, puzzle: Same State NG 1) | – | 29.6 nM | – | – | – | – |
| GGAGCCAAGGCAGGAUAUUCAACAUGAGGAUCACCCAUGUGGGUAAUAAAGGCCAGAAGGCCUUGGGAGAAGGGCCAUGGCUCG [Xeonanis - 13 mod13] (Eterna round: R96, puzzle: Same State NG 2) | 16.8 nM | 9.17 nM | 17.7 nM | – | – | – |
| GACAGGCAAGCUUUUUUCUCGUAGUGUAGACAUGAGGAUCACCCAUGUGCUCGCCCUGGAUCUUUGGAUCGCAGAAA [Laaxeso] (puzzle: Sensor for hsa-mir-208a) | – | – | – | 17.7 nM | 14.4 nM | 16.7 nM |
| ACUUGCUUUUUGCUCAUUUUAUGUCCGAAACAUGAGGAUCACCCAUGUGUAGAUUAUGUGUUGUUUUUGAUACGUGA [JR_SHM208A_Sub067] (puzzle: Sensor for hsa-mir-208a) | – | – | – | 24.6 nM | 20.7 nM | 26.3 nM |
| GUGGUCUGACAUGAGGAUCACCCAUGUGGAAUAAAUACGGGUUAGGAUAUCUUGAGGAUCACCCAAGAGAAGGGAUCGAUUGUU (Eterna round: R96, puzzle: Same State NG 3) | – | 36.4 nM | – | – | – | – |
| GCGGAACCUAACAUGAGGAUCACCCAUGUUCCGGAAACGGCACAGGAUAUCUGUCCGAAAAGGUCAGAGAAGGGUGAAAACCGC [Fiskers NG3ss - 95] (Eterna round: R96, puzzle: Same State NG 3) | 131 nM | 307 nM | 390 nM | – | – | – |
| UUAAAACAUGAGGAUCACCCAUGUAAUAAUAUGGGAGGAUAUCAGAUUUAAUUUAAUUUAUGAGAAGGCCUAAAUU [Mat - Same State 1 - Mod of Eli - D61] (puzzle: Same State 1) | – | – | – | 58.7 nM | 163 nM | 512 nM |
| AACCUACAUGAGGAUCACCCAUGUGUCUAAGGCACAGGAUAUCGACAGGCAAGACGCCUGCGAGAAGGGUGACCUA [Erononer] (puzzle: Same State 1) | – | – | – | 58.7 nM | 34.4 nM | 262 nM |
| GGUGGGUUGCUGCCGGCACAUGAGGAUCACCCAUGUUUUGGGAAGGAUAUGGUCCCUCUUUGGUGCCAGAAGGUCCCGUUGGUC [salish99_SSNG3_r04_715] (Eterna round: R96, puzzle: Same State NG 3) | 232 nM | 75.3 nM | 165 nM | – | – | – |
| GUCGGCCUGUCGUGCUGAGGUGAUAGUUAACAUGAGGAUCACCCAUGUUGCUGUCGGGUCGUUGGGAGUUUUCUUCG [Modxample 117 - Jieux - Sensor for bsa-mir-208a] (Eterna round: R96, puzzle: Sensor for hsa-mir-208a) | 71.2 nM | 50.8 nM | 62.4 nM | – | – | – |
| AUUGCUAGCACAGGAUAUCAUGCGAAAAUUGCGUGAGAAGGGUGUACUCUGUCAUUGCCGGAGGACAUGAGGAUCACCCAUGUC [SameState NG1 #82] (Eterna round: R96, puzzle: Same State NG 1) | 218 nM | 33.6 nM | 37.5 nM | – | – | – |
| AUUAAACAUGAGGAUCACCCAUGUCAACAAAGUCGAGGAUAUGGGCAUAUUAUCUAAUAACCAGAAGGCGAAUAAU [salish99_ss1_r3_085] (puzzle: Same State 1) | – | – | – | 43.8 nM | 194 nM | 210 nM |
| GUUAUACAUGAGGAUCACCCAUGUCAAUGUAGUCGAGGAUAUGGGCAGCUAUGAGGCGUACUAGAAGGCGAGGAGU [JL-ss1-3.15 ViennaUCT mod] (puzzle: Same State 1) | – | – | – | 90.7 nM | 90.5 nM | 134 nM |
| CCAGGACAUGAGGAUCACCCAUGUGCUUAAUGUGGAGAAUCUCAGGAUAUCAUGAGGAUUACCCAUGAGAAGGGAGAUCCGAGG (Eterna round: R96, puzzle: Same State NG 3) | 437 nM | 300 nM | 483 nM | – | – | – |

Reference: the supplement of paper PMC9170038
